Measured values published in PMC4847777.

Molecular target: T1, RamA (His6-RamA) (Corynebacterium glutamicum (ATCC 13032?)) (UniProt Q8NML3)
T1 sequence: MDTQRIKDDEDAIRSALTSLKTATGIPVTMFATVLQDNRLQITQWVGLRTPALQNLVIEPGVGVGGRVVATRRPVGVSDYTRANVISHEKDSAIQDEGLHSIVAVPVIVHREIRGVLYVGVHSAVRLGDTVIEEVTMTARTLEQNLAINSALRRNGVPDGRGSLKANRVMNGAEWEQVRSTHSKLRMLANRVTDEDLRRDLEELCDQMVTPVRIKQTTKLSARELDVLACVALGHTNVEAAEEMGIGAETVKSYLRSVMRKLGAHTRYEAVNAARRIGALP
Test: EMSA
Conditions: 10 mM Tris, 1 mM dithioerythritol, 1 mM EDTA, 1 ug poly[d(I-C)], 10% glycerol, 20 ul, about 70 ng DNA, 20 min at room temperature, pH not stated; 2% agarose in …

TGAAGTATTGGGATCACGCCACGCAAGATCGCGGGCATTTGCTCTAAACCACACGAGCAGGGCTGTTTGAAAAGCTGTAAATGACATGACCTAAATGATTGTACTGACTGGCACTTTAGGTCATATGTCACACCGAGTGGAATAATAAAGCTTATGCCTTTGCGTAATGTTGAGGTACCCCG (double strand) [PF3]
binding: no binding
